Biological target: wild-type human uPAR (human) (UniProt Q03405)
Assay: cell-based or functional assay

Chain of wild-type human uPAR (human) (Q03405 23-305): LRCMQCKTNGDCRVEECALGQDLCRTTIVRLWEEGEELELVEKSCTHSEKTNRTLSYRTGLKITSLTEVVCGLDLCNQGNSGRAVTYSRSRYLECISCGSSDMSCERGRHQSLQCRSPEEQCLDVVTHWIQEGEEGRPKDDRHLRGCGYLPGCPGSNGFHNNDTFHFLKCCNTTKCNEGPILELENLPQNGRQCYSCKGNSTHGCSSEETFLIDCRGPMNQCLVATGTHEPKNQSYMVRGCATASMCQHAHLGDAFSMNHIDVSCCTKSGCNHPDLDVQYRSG

| % max inhibition (pro-uPA pre-treat.) | % max inhibition (veh. pre-treat.) | IC50 (pro-uPA pre-treat.) | Substance |
| --- | --- | --- | --- |
| 21% | 65% | – | R2 (antibody) |
| 100% | 100% | 800 nM | Somatomedin B domain of VN (from UniProt P04004 20-63) (ligand) |

Source: patent publication US20140161803A1, “CONSTITUTIVELY ACTIVE UPAR VARIANTS AND THEIR USE FOR THE GENERATION AND ISOLATION OF INHIBITORY ANTIBODIES” (IFOM Fondazione Istituo FIRC di Oncologia Molecolare, priority 2011, published 2014)
